Our source for the normalised SPOT signal, Boehringer light units (BLU); mean over the file's lines of this peptide values is publication PMC314469, “Protein Interaction Networks by Proteome Peptide Scanning” (PLoS Biology, 2004).

Sequence of Sho1 SH3 (SHO1_YEAST), P40073 (P40073 295-366): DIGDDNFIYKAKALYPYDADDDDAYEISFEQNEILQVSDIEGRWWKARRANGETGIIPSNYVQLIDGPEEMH

The assay addresses Sho1 SH3 (SHO1_YEAST), P40073. In words: SPOT array.
For ARDPILPYRLVKDR [345-358 Product of gene unknown], the normalised SPOT signal, Boehringer light units (BLU); mean over the file's lines of this peptide was found to be 118.

APAPLDPFKTGGNN [849-862 " contains 3 SH3 domains, interacts with Bee1p"] showed a normalised SPOT signal, Boehringer light units (BLU); mean over the file's lines of this peptide of 681.

The molecule AAWPLDPARERWTR [269-282 Hypothetical ORF] yielded a normalised SPOT signal, Boehringer light units (BLU); mean over the file's lines of this peptide of 137.

Take YSNPQTPLRSLAGL [1404-1417 Type 1 membrane protein with EF hand motif]: the normalised SPOT signal, Boehringer light units (BLU); mean over the file's lines of this peptide was 217.

In the case of YSLPMHPGRWWVHT [222-235 " 2,3-oxidosqualene-lanosterol cyclase"], the normalised SPOT signal, Boehringer light units (BLU); mean over the file's lines of this peptide worked out at 453.

Regarding AAQPPLPSRNVASG [446-459 Actin binding protein], the normalised SPOT signal, Boehringer light units (BLU); mean over the file's lines of this peptide is 81.6.

On to AMPPTLPHRDWKDY [84-97 component of peroxisomal import machinery], for which the normalised SPOT signal, Boehringer light units (BLU); mean over the file's lines of this peptide was determined as 321.

As to AKQPKEPKKRTTRR [7-20 11-kDa nonhistone chromosomal protein], the normalised SPOT signal, Boehringer light units (BLU); mean over the file's lines of this peptide is 103.

Consider ATRPSSPMRHKSIS [585-598 protein kinase domain], for which the normalised SPOT signal, Boehringer light units (BLU); mean over the file's lines of this peptide was 401.

In the case of YTLPLLPGKGGFRI [228-241 Hypothetical ORF], the normalised SPOT signal, Boehringer light units (BLU); mean over the file's lines of this peptide amounted to 509.

For ALVPFAPFKLLKDR [340-353 Triacetylfusarinine C transporter], the normalised SPOT signal, Boehringer light units (BLU); mean over the file's lines of this peptide amounted to 129.

APTPPAPSRSEKLH [727-740 Hypothetical ORF] displayed a normalised SPOT signal, Boehringer light units (BLU); mean over the file's lines of this peptide of 258.

The molecule ALKPKTPSKAPRKR [65-78 origin recognition complex subunit 2] came in with a normalised SPOT signal, Boehringer light units (BLU); mean over the file's lines of this peptide of 830.

With ATTPAIPTKSDEAE, the normalised SPOT signal, Boehringer light units (BLU); mean over the file's lines of this peptide worked out at 169.

Regarding AKSPLLPFKLLSDR [330-343 Hypothetical ORF], the normalised SPOT signal, Boehringer light units (BLU); mean over the file's lines of this peptide amounted to 160.

ASLPVGPRKNGMNV [26-39 Hypothetical ORF] gave a normalised SPOT signal, Boehringer light units (BLU); mean over the file's lines of this peptide of 215.

Molecule AFVPTNPWRSSMSL [315-328 invertase (sucrose hydrolyzing enzyme)] registered a normalised SPOT signal, Boehringer light units (BLU); mean over the file's lines of this peptide of 620.

On to YPSPAQPPKSPLLN [448-461 " involved in bud formation, has SH3 domain"], for which the normalised SPOT signal, Boehringer light units (BLU); mean over the file's lines of this peptide was determined as 128.

As to AGSPIRPYKQRYLL [526-539 heat shock transcription factor], the normalised SPOT signal, Boehringer light units (BLU); mean over the file's lines of this peptide was found to be 86.2.

As to AIEPGVPSRYSDET [91-104 Hypothetical ORF], the normalised SPOT signal, Boehringer light units (BLU); mean over the file's lines of this peptide came out at 125.

YQYPQTPSKVDISI [243-256 Product of gene unknown] showed a normalised SPOT signal, Boehringer light units (BLU); mean over the file's lines of this peptide of 196.

Take APLPPQPRKHDKTP [587-600 Protein Kinase C]: the normalised SPOT signal, Boehringer light units (BLU); mean over the file's lines of this peptide worked out at 152.
